Molecular target: APOBEC3G (A3G) (UniProt Q9HC16 1-384)
Test: AFM force spectroscopy; two binding modes; stronger and more stable complexes than with nonspecific ssDNA; Force spectroscopy probing buffer: 50 mM HEPES, 100 mM NaCl, 5 mM MgCl2, 1 mM DTT (pH and temperature not given); imaging buffer not in the material
Details: protein: recombinant; tags: mycHis (C-terminal)

Sequence of APOBEC3G (A3G) (Q9HC16 whole entry): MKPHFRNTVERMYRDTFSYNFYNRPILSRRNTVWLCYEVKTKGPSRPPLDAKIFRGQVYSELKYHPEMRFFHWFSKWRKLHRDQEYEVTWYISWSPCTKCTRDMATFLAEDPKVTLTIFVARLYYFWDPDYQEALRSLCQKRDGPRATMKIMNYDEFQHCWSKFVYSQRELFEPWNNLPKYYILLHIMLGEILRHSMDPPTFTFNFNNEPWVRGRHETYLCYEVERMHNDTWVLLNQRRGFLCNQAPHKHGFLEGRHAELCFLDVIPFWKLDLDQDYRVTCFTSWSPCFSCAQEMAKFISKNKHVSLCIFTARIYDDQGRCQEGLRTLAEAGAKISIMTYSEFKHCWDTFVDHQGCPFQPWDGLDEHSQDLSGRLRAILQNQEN

B1: 69 nt deaminase specific ssDNA (ssDNA)
DNA: TACGTGTAGGAATTATATTAAAGAGAAAGTGAAACCCAAAGAATGAAAACCCAAATGTTAGAATTGTTA
modifications: 5' thiol
binding result: binds
